Source: US20250361320A1 (Bristol-Myers Squibb, published 2025)

Legend:
[1] = target: T1, human CEACAM5 on cells (MKN45, BxPC-3, Ls174T, HCT116-huCEACAM5) (human, UniProt P06731 35-685); test: cell-based or functional assay
T1 sequence: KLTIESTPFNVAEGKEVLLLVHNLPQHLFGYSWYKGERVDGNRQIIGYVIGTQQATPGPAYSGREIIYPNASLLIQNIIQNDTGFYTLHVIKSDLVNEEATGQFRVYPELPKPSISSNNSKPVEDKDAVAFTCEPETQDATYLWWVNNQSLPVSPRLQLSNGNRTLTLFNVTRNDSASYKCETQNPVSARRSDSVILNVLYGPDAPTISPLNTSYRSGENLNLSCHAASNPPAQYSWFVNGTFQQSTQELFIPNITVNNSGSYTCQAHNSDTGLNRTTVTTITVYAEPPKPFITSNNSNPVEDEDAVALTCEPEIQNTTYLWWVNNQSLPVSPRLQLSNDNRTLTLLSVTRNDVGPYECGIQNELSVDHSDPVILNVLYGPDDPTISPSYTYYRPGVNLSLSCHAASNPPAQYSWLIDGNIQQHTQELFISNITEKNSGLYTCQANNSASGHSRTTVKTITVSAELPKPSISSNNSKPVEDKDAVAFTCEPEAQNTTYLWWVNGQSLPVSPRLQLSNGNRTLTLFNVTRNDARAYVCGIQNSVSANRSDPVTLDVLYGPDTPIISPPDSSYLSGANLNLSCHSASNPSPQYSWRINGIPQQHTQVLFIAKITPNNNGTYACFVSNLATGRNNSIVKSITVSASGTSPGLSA

[2] = target: T2, cynomolgus CEACAM5 on cells (HCT116-cyCEACAM5) (cynomolgus (Macaca fascicularis)); test: cell binding, HCT-116 cyCEACAM5 cells
T2 construct: also called cynoCEACAM-5
T2 chain: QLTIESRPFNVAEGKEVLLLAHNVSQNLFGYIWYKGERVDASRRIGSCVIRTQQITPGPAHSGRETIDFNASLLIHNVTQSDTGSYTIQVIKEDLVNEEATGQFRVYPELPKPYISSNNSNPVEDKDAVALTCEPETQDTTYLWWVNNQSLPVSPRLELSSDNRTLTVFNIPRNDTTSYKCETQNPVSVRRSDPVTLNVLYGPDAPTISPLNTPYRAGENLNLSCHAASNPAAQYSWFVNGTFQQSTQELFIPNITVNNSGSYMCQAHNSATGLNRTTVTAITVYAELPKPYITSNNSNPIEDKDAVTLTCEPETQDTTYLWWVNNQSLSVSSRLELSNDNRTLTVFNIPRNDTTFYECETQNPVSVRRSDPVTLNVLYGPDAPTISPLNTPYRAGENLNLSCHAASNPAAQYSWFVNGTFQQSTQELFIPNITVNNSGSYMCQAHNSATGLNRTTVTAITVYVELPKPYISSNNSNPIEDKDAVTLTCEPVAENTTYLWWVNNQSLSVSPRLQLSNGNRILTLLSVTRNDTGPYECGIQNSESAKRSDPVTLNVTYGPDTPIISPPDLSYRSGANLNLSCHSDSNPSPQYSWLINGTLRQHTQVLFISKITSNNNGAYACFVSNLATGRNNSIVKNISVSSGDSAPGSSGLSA

B1: MBP003 (hIgG1 progeny of MBN001) (antibody, V domains shown)
VH: QVQLVESGGGVVQPGRSLRLSCAASGITFSSHGMHWVRQAPGKGLEWVTFISYDGSYKSYVDSVKGRFTISRDNSKNTLYLQMNSLRAEDTAVYYCATGLTGTGAFDIWGQGTMVTVSS
VL: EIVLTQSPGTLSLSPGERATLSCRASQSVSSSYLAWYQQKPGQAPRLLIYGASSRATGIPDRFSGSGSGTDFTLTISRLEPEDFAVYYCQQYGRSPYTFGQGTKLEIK
- Ls174T 5-day cytotoxicity (AUC), antibody with cytotoxic payload [1]: 18500
- MKN45 5-day cytotoxicity (AUC), antibody with cytotoxic payload [1]: 24400

B2: anti-CEACAM5 mAb MBN001 (antibody, V domains shown)
VH: QVQLVETGGGVVQPGRSLRLSCAASGITFSSHGMHWVRQSPGKGLEWVTFISYDGSYKSYVDSVKGRFAISRDNSKNTLYLQMNSLRPEDTAVYYCATGLTGTGAFDIWGQGTMVTVSS
VL: not shown
notes: also called MBN001 parent; bin 1 lead
- EC50 [2]: 82.2 nM

B3: MBP002 (hIgG1 progeny of MBN001) (antibody, V domains shown)
VH: QVQLVESGGGVVQPGRSLRLSCAASGITFSSHGMHWVRQAPGKGLEWVTFISYDGSYKSYVDSVKGRFTISRDNSKNTLYLQMNSLRAEDTAVYYCATGLTGTNALDIWGQGTMVTVSS
VL: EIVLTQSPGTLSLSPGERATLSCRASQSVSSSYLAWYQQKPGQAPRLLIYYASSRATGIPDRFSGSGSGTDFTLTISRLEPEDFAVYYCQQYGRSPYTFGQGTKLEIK
- Ls174T 5-day cytotoxicity (AUC), antibody with cytotoxic payload [1]: 18900
- MKN45 5-day cytotoxicity (AUC), antibody with cytotoxic payload [1]: 24100

B4: MBP008 (hIgG1.3f progeny of MBN001) (antibody, V domains shown)
VH: QVQLVESGGGVVQPGRSLRLSCAASGITFSSHGMHWVRQAPGKGLEWVTFISYDGSYKSYVDSVKGRFTISRDNSKNTLYLQMNSLRAEDTAVYYCATGLTGTNALDIWGQGTMVTVSS
VL: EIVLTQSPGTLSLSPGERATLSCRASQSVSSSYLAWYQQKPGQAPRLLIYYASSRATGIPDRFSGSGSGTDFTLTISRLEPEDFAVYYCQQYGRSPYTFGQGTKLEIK
- Ls174T 5-day cytotoxicity (AUC), antibody with cytotoxic payload [1]: 1140
- MKN45 5-day cytotoxicity (AUC), antibody with cytotoxic payload [1]: 2200

B5: MBP005 (hIgG1.3f progeny of MBN001) (antibody, V domains shown)
VH: QVQLVESGGGVVQPGRSLRLSCAASGIYFSSHGMHWVRQAPGKGLEWVTFISYDGSYKSYVDSVKGRFTISRDNSKNTLYLQMNSLRAEDTAVYYCATGLTGTGAFDIWGQGTMVTVSS
VL: not shown
- Ls174T 5-day cytotoxicity (AUC), antibody with cytotoxic payload [1]: 964
- MKN45 5-day cytotoxicity (AUC), antibody with cytotoxic payload [1]: 2350

B6: MBP009 (hIgG1.3f progeny of MBN001) (antibody, V domains shown)
VH: QVQLVESGGGVVQPGRSLRLSCAASGIYFSSHGMHWVRQAPGKGLEWVTFISYDGSYKSYVDSVKGRFTISRDNSKNTLYLQMNSLRAEDTAVYYCATGLTGTGAFDIWGQGTMVTVSS
VL: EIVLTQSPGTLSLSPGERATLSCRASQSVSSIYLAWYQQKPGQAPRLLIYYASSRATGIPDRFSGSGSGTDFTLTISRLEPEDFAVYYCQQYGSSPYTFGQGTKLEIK
- Ls174T 5-day cytotoxicity (AUC), antibody with cytotoxic payload [1]: 1040
- MKN45 5-day cytotoxicity (AUC), antibody with cytotoxic payload [1]: 2200

B7: MBP004 (hIgG1.3f progeny of MBN001) (antibody, V domains shown)
VH: QVQLVESGGGVVQPGRSLRLSCAASGITFSSHGMHWVRQAPGKGLEWVTFISYDGSYKSYVDSVKGRFTISRDNSKNTLYLQMNSLRAEDTAVYYCATGLTGTGAFDIWGQGTMVTVSS
VL: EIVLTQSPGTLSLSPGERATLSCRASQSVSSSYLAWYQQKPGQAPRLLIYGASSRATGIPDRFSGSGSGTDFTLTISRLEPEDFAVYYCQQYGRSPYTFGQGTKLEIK
- Ls174T 5-day cytotoxicity (AUC), antibody with cytotoxic payload [1]: 865
- MKN45 5-day cytotoxicity (AUC), antibody with cytotoxic payload [1]: 2380

B8: MBP006 (hIgG1.3f progeny of MBN001) (antibody, V domains shown)
VH: QVQLVESGGGVVQPGRSLRLSCAASGITFSSHGMHWVRQAPGKGLEWVTFISYDGSYISYVDSVKGRFTISRDNSKNTLYLQMNSLRAEDTAVYYCATGLTGTGANDIWGQGTMVTVSS
VL: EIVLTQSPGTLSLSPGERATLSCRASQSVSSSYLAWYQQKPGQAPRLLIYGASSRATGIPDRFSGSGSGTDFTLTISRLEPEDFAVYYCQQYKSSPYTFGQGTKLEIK
- Ls174T 5-day cytotoxicity (AUC), antibody with cytotoxic payload [1]: 902
- MKN45 5-day cytotoxicity (AUC), antibody with cytotoxic payload [1]: 2440

B9: MBP010 (hIgG1.3f progeny of MBN001) (antibody, V domains shown)
VH: QVQLVESGGGVVQPGRSLRLSCAASGITFSSHGMHWVRQAPGKGLEWVTFISYDSSYKSYVDSVKGRFTISRDNSKNTLYLQMNSLRAEDTAVYYCATGLTGTGAFDIWGQGTMVTVSS
VL: EIVLTQSPGTLSLSPGERATLSCRASQSVSSSYLAWYQQKPGQAPRLLIYGASSRATGIPDRFSGSGSGTDFTLTISRLEPEDFAVYYCQQNKRSPYTFGQGTKLEIK
- Ls174T 5-day cytotoxicity (AUC), antibody with cytotoxic payload [1]: 910
- MKN45 5-day cytotoxicity (AUC), antibody with cytotoxic payload [1]: 1360

B10: MBP007 (hIgG1.3f progeny of MBN001) (antibody, V domains shown)
VH: QVQLVESGGGVVQPGRSLRLSCAASGIYFSSHGMHWVRQAPGKGLEWVTFISYDGSYKSYVDSVKGRFTISRDNSKNTLYLQMNSLRAEDTAVYYCATGLTGTGANDIWGQGTMVTVSS
VL: EIVLTQSPGTLSLSPGERATLSCRASQSVSSSYLAWYQQKPGQAPRLLIYGASSRATGIPDRFSGSGSGTDFTLTISRLEPEDFAVYYCQQNKPSPYTFGQGTKLEIK
- Ls174T 5-day cytotoxicity (AUC), antibody with cytotoxic payload [1]: 834
- MKN45 5-day cytotoxicity (AUC), antibody with cytotoxic payload [1]: 2070

B11: MBP011 (hIgG1.3f progeny of MBN001) (antibody, V domains shown)
VH: QVQLVESGGGVVQPGRSLRLSCAASGITFSSHGMHWVRQAPGKGLEWVTFISYDGSIKSYVDSVKGRFTISRDNSKNTLYLQMNSLRAEDTAVYYCATGLTGTGAFDIWGQGTMVTVSS
VL: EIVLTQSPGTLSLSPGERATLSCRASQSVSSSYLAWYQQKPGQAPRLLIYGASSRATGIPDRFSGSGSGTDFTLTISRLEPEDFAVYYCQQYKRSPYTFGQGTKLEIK
- Ls174T 5-day cytotoxicity (AUC), antibody with cytotoxic payload [1]: 939
- MKN45 5-day cytotoxicity (AUC), antibody with cytotoxic payload [1]: 1770
